According to patent publication US20240409614A1 (DANMARKS TEKNISKE UNIVERSITET, published 2024):
Residue numbers refer to the chain shown, from its start. Names and notes keep the numbering of the source.

B1: A1AT-M351V/L353A/M358V (other)
chain: EDPQGDAAQKTDTSHHDQDHPTFNKITPNLAEFAFSLYRQLAHQSNSTNIFFSPVSIATAFAMLSLGTKADTHDEILEGLNFNLTEIPEAQIHEGFQELLRTLNQPDSQLQLTTGNGLFLSEGLKLVDKFLEDVKKLYHSEAFTVNFGDTEEAKKQINDYVEKGTQGKIVDLVKELDRDTVFALVNYIFFKGKWERPFEVKDTEEEDFHVDQVTTVKVPMMKRLGMFNIQHCKKLSSWVLLMKYLGNATAIFFLPDEGKLQHLENELTHDIITKFLENEDRRSASLHLPKLSITGTYDLKSVLGQLGITKVFSNGADLSGVTEEAPLKLSKAVHKAVLTIDEKGTEAAGAVFAEAIPVSIPPEVKFNKPFVFLMIEQNTKSPLFMGKVVNPTQK
B2: A1AT-M351V/L353T/M358V (other)
chain: B1 chain with A353T
B3: A1AT-M351V/L353S/M358V (other)
chain: B1 chain with A353S

What follows are binders tested against elastase (EnzChek Elastase Assay kit, Invitrogen) (assay: cell-based or functional assay).
In the case of B1, the “IC50 (anti-elastase activity), first determination” value (“IC50 … first determination” for short) is reported as 74.6 nM and the “IC50 (anti-elastase activity), second determination” value (shortened to “IC50 … second determination”) is reported as 78.2 nM.
In the case of B2, the “IC50 … first determination” value is reported as 98.9 nM and the “IC50 … second determination” value is reported as 115 nM.
With B3 the “IC50 … first determination” value was 86.9 nM and the “IC50 … second determination” value was 108 nM.
